The record followed here is patent US20220073608A1 (JIANGSU HUAIYU PHARMACEUTICAL, published 2022).

In assay [1] the target is T1, human SEMA4D, full length, on CHO-K1 cells (CHO-K1 hSEMA4D) (human, UniProt Q92854 22-862).
T1 construct: whole, on cells; also called human SEMA4D recombinant cells
T1 sequence (looked up): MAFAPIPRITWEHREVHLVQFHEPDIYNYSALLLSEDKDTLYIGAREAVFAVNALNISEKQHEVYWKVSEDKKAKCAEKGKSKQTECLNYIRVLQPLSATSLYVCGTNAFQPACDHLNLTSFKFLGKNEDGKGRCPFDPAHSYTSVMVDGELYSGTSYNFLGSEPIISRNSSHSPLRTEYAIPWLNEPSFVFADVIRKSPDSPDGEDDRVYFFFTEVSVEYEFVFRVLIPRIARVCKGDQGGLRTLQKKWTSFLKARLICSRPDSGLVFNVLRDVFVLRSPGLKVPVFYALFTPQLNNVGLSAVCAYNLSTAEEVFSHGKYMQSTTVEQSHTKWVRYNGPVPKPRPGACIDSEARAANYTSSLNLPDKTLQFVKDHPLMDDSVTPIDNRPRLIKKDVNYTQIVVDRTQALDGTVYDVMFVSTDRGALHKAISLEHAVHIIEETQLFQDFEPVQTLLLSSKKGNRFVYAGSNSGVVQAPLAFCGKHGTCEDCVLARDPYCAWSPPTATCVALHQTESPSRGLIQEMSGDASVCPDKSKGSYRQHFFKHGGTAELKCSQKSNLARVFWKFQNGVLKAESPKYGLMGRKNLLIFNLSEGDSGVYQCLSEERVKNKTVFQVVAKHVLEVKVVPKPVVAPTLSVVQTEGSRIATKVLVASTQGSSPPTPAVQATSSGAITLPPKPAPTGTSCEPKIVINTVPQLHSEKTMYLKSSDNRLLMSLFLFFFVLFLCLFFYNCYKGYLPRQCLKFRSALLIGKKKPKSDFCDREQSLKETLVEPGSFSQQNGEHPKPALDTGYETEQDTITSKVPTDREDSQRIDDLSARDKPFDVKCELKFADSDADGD
Description: competitive FACS, CHO-K1 hSEMA4D cells; unlabelled Ab 6 ug/mL first, competitor Alexa 488-VX15 0.67 ug/mL. The source says:
The purified hybridoma SEMA4D antibodies and fully human SEMA4D antibody were subjected to competitive flow cytometry (FACS) to analyze whether the epitopes bound by different antibodies competed with that bound by the reference antibody VX15.
(§1) The medium was aspirated, the cells were washed once with PBS buffer (purchased from Invitrogen), and then treated with cell dissociation fluid (TrypLE™ Express Enzyme, purchased from Life technology), and the cells were collected. After the cells counted, the cells were washed once with PBS phosphate buffer, and diluted to 3×10⁶ cells per milliliter, and added to the 96-well FACS reaction plate as 100 μL per well. 2% (w/w) fetal calf serum was added to PBS phosphate buffer as FACS buffer, with which the cells were washed once by centrifugation at 2000 rpm 4° C. 100 μL of the leading antibodies and IgG control diluted to a concentration of 6 μg/mL was added to each well and the plate was incubated for 1 hour on ice. […] Cells were washed 2 times by centrifugation with FACS buffer. The cells were suspended with 200 μL of FACS buffer, and FACS (FACS Verse, purchased from BD) was used to detect and analyze the results.

The target of assay [2] is T1, human SEMA4D, full length, on CHO-K1 …. In words: FACS, CHO-K1 hSEMA4D cells; Ab 0.107 nM. The protocol:
as §1, with “of diluted and purified” for “of the”, “antibodies” for “antibodies and IgG control diluted to a concentration of 6 μg/mL”

Assay [3] concerns the target T2, mouse SEMA4D, full length, on CHO-K1 cells (CHO-K1 mSEMA4D) (mouse, UniProt O09126 24-861).
T2 construct: whole, on cells; also called murine SEMA4D recombinant cells
T2 sequence (looked up): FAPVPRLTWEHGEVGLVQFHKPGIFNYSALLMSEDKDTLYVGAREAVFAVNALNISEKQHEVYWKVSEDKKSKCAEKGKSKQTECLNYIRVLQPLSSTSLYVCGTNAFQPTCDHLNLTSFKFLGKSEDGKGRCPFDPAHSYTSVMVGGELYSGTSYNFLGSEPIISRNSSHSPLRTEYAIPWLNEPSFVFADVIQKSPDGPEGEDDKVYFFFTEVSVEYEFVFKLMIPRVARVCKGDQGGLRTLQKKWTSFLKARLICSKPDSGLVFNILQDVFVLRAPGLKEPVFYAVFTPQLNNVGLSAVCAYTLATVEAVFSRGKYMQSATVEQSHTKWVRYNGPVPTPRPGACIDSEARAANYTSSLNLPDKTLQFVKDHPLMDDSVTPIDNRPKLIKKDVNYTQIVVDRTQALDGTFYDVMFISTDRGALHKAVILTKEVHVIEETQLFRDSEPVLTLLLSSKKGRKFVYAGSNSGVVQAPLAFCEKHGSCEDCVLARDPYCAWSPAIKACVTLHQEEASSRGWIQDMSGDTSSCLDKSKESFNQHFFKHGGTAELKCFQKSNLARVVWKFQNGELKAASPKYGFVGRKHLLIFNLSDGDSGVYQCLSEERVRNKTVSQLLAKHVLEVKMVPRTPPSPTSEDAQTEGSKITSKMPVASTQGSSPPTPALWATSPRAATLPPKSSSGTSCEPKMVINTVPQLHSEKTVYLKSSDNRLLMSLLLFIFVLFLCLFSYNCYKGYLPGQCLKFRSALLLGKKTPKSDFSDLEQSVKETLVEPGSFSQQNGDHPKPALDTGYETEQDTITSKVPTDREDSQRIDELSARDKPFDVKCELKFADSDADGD
Description: FACS, CHO-K1 mSEMA4D cells; Ab 0.00427 nM. The protocol: After the cells were counted, they were diluted with PBS to 2×10⁶ cells per milliliter. After washing, 100 μL of diluted and purified leading antibodies was added to each well and the plate was incubated for 1 hour on ice. […] Cells were washed 2 times by centrifugation with FACS buffer. The cells were suspended with 200 μL of FACS buffer, FACS (FACS Verse, purchased from BD) was used to detect and analyze the results.

The target of assay [4] is T1, human SEMA4D, full length, on CHO-K1 …. Description: FACS, CHO-K1 hSEMA4D cells; Ab 0.0213 nM. The protocol: as §1, with “of diluted and purified” for “of the”, “antibodies” for “antibodies and IgG control diluted to a concentration of 6 μg/mL”
A general note: Flow cytometry measures light scatter and fluorescence of single cells or particles in a stream.

B1: 37F11F9 (antibody, V domains shown)
VH: EVQLQQSGPVLVKPGASVKMSCKASGYTFTDYYMNWVKQSHGKSLEWIGLINPYSGGSTFNQKFKAKATLTVDKSSSSAYMDLNSLTSEDSAVYYCARVGDGYYGVTHGMDYWGQGTSVTVSS
VL: DIVMTPSQKFMSTTVGDRVSITCKASQNVGTAVAWYQQKPGQSPTILIYSASNRYTGVPDRFTGSGSGTDFTLTISNMKSEDLADYFCQQYYIYPFTFAAGTKLELK
notes: Mouse monoclonal antibody purified from hybridoma supernatant on protein A
Regarding B1, in assay [1], the “inhibition rate (%)” value was found to be 25%. For the same molecule, the MFI in assay [2] is 308; in assay [3], 30.1; in assay [4], 101.

B2: 37C4F7 (antibody, V domains shown)
VH: EFQLQQSGPEVVKPGASVKISCKASGYSFTDYNMNWMKQSKGKSLEWIGVINPNYGTTTYNQNFKGKATLTVDQSSSTAYMQLNSLTSEDSAVYYCARDMYYVYAYYTMDYWGQGTSVTVSS
VL: DVVMTQTPLSLPVSLGDQASISCRSSQSLVHSNGHTYLHWYLQRPGQSPTLLIYKVSNRFSGVPDRFSGSGSGTDFTLKISRVEAEDLGVYFCSQGTHVPWTFGGGTKLEIK
notes: as for B1
For B2, the “inhibition rate (%)” value in assay [1] stood at 20%. In addition, the MFI in assay [2] stood at 210; in assay [3], 30.5; in assay [4] it was 76.6.

B3: 38H2E3 (antibody, V domains shown)
VH: EFQLQQSGPEVVKPGASVKISCKASGYSFTDYNMNWMKQSKGKSLEWIGVISPDYGTTTYNQNFKDKATLTVDQSSSTAYMQLNSLTSEDSAVYYCAKDMYYVYAYYTMDYWGHGTSVTVSS
VL: DVVMTQTPLSLPVSLGDQASISCRSSQSLVHSNGHTYLHWYLQRPGQSPTLLIYKVSNRFSGVPDRVSGSGSGTDFTLKISRVEAEDLGVYFCSQGTHVPRTFGGGTKLEIK
notes: as for B1
For the molecule B3, the “inhibition rate (%)” value in assay [1] worked out at 21%. The MFI in assay [2] stood at 215; in assay [3], 29.9; in assay [4] it was 78.7.

B4: 42B7G2 (antibody, V domains shown)
VH: QVQLQQSGAELARPGASVKLSCKASGYTFTDYGISWVKQRTGQGLEWIGEIYLRNDNSYYNEKFKGKATLTADKSSNTAYMELRSLTSEDSAVYFCARWGDHGNNYEDAMDYWGQGTSVTVSS
VL: DIVLTQSPASLAMSLGKRATISCRASESVSIIGSNLIHWYQQKPGQPPKLLIYHASNLETGVPARFSGSGSRTDFTLTIDPVEEDDVAIYYCLQSRKVPYTFGGGTKLEIK
notes: as for B1
B4: the “inhibition rate (%)” value in assay [1] was found to be 15%. In addition, the MFI in assay [2] came to 598; in assay [3], 30.3; in assay [4] it was 173.

B5: 32C8F10 (antibody, V domains shown)
VH: EVQLQQSGAELVRPGASVKLSCTASGFNIKDEYIHWVKQRPEQGLEWIGWIDPANGHTEYASRFQAKATITADTSSNTAYLQLSSLTSEDTAVYYCTTGDYDGFAYWGQGTLVTVST
VL: QIVLTQSPAIMSASPGEKVTISCSARSSVSYMYWYQQKPGSSPKPWIYRTSNLASGVPARFSGSGSGTSYSLTISSMEAEDAATYYCQHYHTYPYTFGGGTKLEIK
notes: as for B1
Consider B5, for which the “inhibition rate (%)” value in assay [1] was 42%. The MFI amounted to 832 in assay [2], 30.2 in assay [3] and 218 in assay [4].

B6: 31G10C5 (antibody, V domains shown)
VH: EVQLQQSGAELVRPGASVKLSCTASGFNIKDDYIHWVKQRPEQGLEWIGWIDPANGHIEYASNFQAKATITADTSSNTAYLQLSSLTSEDTAVYYCTTGDYDGFTYWGQGTLVTVST
VL: QIVLTQSPAIMSASPGEKVTISCSARSSVSYMYWYQQKPGSSPKPWIYRTSNLASGVPARFSGSGSGTSYSLTISSMEAEDAATYYCQHYHTYPYTFGGGTKLEIK
notes: as for B1
In the case of B6, in assay [1], the “inhibition rate (%)” value stood at 42%. For the same molecule, the MFI in assay [2] was determined as 855; in assay [3] it was 29.8; in assay [4], 225.

B7: 31C11G2 (antibody, V domains shown)
VH: EVQLQQSGAELVRPGASVKLSCTASGFNIKDEYIHWVKQRPEQGLEWIGWIDPANGHTEYASRFQAKATITADTSSNTAYLQLSSLTSEDTAVYYCTTGDYDGFVYWGQGTLVTVST
VL: QIVLTQSPAIMSASPGEKVTIFCSARSSVSYMYWYQQKPGSSPKPWIYRTSNLASGVPARFSGSGSGTSYSLTISSMEAEDAATYYCQHYHTYPYTFGGGTKLEIK
notes: as for B1
B7: the “inhibition rate (%)” value in assay [1] is 44%. In addition, the results for the MFI in assay [2], in assay [3] and in assay [4] were 906, 31.4 and 248, respectively.
